Experimental data reported in patent US20200010567A1 (NEURIMMUNE, published 2020).

T1: GA4: H-(GA)4HHHHHH-NH2
T1 peptide: H-GAGAGAGAHHHHHH-NH2

T2: GA3: H-(GA)3HHHHHH-NH2
T2 peptide: H-GAGAGAHHHHHH-NH2

T3: GA2: H-(GA)2HHHHHH-NH2
T3 peptide: H-GAGAHHHHHH-NH2

T4: GA5: H-(GA)5HHHHHH-NH2
T4 peptide: H-GAGAGAGAGAHHHHHH-NH2

T5: GP20: H-(GP)20HHHHHH-NH2 (C-terminal amide)
T5 peptide: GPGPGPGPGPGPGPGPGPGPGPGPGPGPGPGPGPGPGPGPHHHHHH


What was measured:
GA4: H-(GA)4HHHHHH-NH2 = target: T1, GA4: H-(GA)4HHHHHH-NH2; test: indirect ELISA, His-tagged peptide coated at 50 ug/ml, antibody titrated [also D00025 FIG. 7I]
Protocol: (§1) 96-well microplates (Corning Incorporated, Corning, USA) were coated with dipeptide repeat protein peptides at a concentration of 50 μg/ml in coating buffer (15 mM Na₂CO₃, 35 mM NaHCO₃, pH 9.42). Non-specific binding sites were blocked for 1 h at room temperature with PBS/0.1% Tween®-20 containing 2% BSA (Sigma-Aldrich, Buchs, Switzerland). Primary antibodies were diluted to the indicated concentrations and incubated 1 h at room temperature, followed by incubation with a donkey anti-human IgG Fcγ-specific antibody conjugated with HRP (Jackson ImmunoResearch Laboratories, Inc., West Grove, USA). Binding was determined by measurement of HRP activity in a standard colorimetric assay. EC₅₀ values were estimated by non-linear regression using GraphPad Prism software (San Diego, USA).
(§2) High affinity binding was detected for poly-GA DPRs harboring 10 or 20 (GA)-repeats, reflected in an EC₅₀ in the subnanomolar or low nanomolar range (FIGS. 7A, 7C-7I).

GA3: H-(GA)3HHHHHH-NH2 = target: T2, GA3: H-(GA)3HHHHHH-NH2; test: as above
Protocol: as §1, §2

GA2: H-(GA)2HHHHHH-NH2 = target: T3, GA2: H-(GA)2HHHHHH-NH2; test: as above
Protocol: as §1, §2

GA5: H-(GA)5HHHHHH-NH2 = target: T4, GA5: H-(GA)5HHHHHH-NH2; test: as above
Protocol: as §1, §2

GP20: H-(GP)20HHHHHH-NH2 = target: T5, GP20: H-(GP)20HHHHHH-NH2; test: sandwich ELISA, peptide captured by anti-His antibody
Text: In brief, His-tagged dipeptide repeat protein peptides were synthesized and purified by Schafer-N(Copenhagen, Denmark): GA₂₀: H-(GA)₂₀HHHHHH-NH₂; GA₁₀: H-(GA)₁₀HHHHHH-NH₂; GA₆: H-(GA)₆HHHHHH-NH₂; GA₅: H-(GA)₅HHHHHH-NH₂; GA₄: H-(GA)₄HHHHHH-NH₂; GA₃: H-(GA)₃HHHHHH-NH₂; GA₂: H-(GA)₂HHHHHH-NH₂; GP₂₀: H-(GP)₂₀HHHHHH-NH₂; GP₁₀: H-(GP)₁₀HHHHHH-NH₂; GP₆: H-(GP)₆HHHHHH-NH₂; GP₅: H-(GP)₅HHHHHH-NH₂; GP₄: H-(GP)₄HHHHHH-NH₂; GP₃: H-(GP)₃HHHHHH-NH₂; GP₂: H-(GP)₂HHHHHH-NH₂. 96-well microplates (Corning Incorporated, Corning, USA) were coated with monoclonal mouse anti-His tag antibody (Takara Bio Europe/Clontech, Saint-Germain-en-Laye, France) at a concentration of 10 μg/ml in coating buffer (15 mM Na₂CO₃, 35 mM NaHCO₃, pH 9.42) overnight at 4° C. Non-specific binding sites were blocked for 1 h at room temperature with PBS/0.1% Tween®-20 containing 2% BSA (Sigma-Aldrich, Buchs, Switzerland). After a washing step, His-tagged C9orf72 DPR protein peptides at equal concentration of either 1 μM or 5 μM in PBS (pH 7.4) were added for target-trapping by the anti-His tag antibody for 1 h at room temperature. […] Antibody binding to DPR protein peptides was detected by a donkey anti-human IgG Fcγ-specific antibody conjugated with HRP at 1:5000 dilution (Jackson ImmunoResearch Laboratories, Inc., West Grove, USA) for 1 h at RT. Binding was determined by measurement of HRP activity in a standard colorimetric assay. EC₅₀ values were estimated by non-linear regression using GraphPad Prism software (San Diego, USA).

Binder | binding result (GA4: H-(GA)4HHHHHH-NH2) | binding result (GA3: H-(GA)3HHHHHH-NH2) | binding result (GA2: H-(GA)2HHHHHH-NH2) | binding result (GA5: H-(GA)5HHHHHH-NH2) | EC50 (GP20: H-(GP)20HHHHHH-NH2) [nM]
NI-308.45C2 (antibody, V domains shown, Recombinant complete human IgG1, kappa) VH: QLQLQESGPGLVKPSQILSLTCAISGDSVFSNSAAWNWIRQSPSRGLEWLGRTYYRSKWDNDYAPSVKSRISINPDTSKNQFSLQLNSVTPEDTAVYYCAREVAYCGGDCYSVSFDYWGQGTLVTVSS VL: not shown | no binding (tested: about 4x10^5 pM (last point)) | no binding (tested: about 4x10^5 pM (last point)) | no binding (tested: about 4x10^5 pM (last point)) | no binding (tested: about 4x10^5 pM (last point)) | 
NI-308.5G2 (antibody, V domains shown, Recombinant complete human IgG1, kappa) VH: EVQLVQSGADLRNPGASVTVSCTASGYHFADNAINWLRQAPGQRLEWMGWINIYSGNTKYSQNFQGRVTFTRNTSASTAFMHLRSLRSEDTAVYFCARDPDSSGYYLPYFDYWGQGTLVTVSS VL: DIQLTQSPDSLTLSLGERATINCKSSQSVFYNSNNKNYLAWYQQKPGQPPKLLMYWASTRESGVTDRFSGSGSGTDFTLTITNLQAEDVAVYYCQQFYSSPLTFGGGTKVEIK |  |  |  |  | 38.2
